Assay results taken from patent CN1660912A.
Each block holds one binder with its values, some of them ahead of it.

What was measured:
[1] = biological target: 白细胞介素-8(IL-8), E.Coli表达的基因重组人体单核细胞来源的IL-8, 72个氨基酸 (human) (UniProt P10145); assay: ELISA, plate coated with 1ug/ml IL-8, antibody 15 ng/ml, mean
[2] = biological target: 白细胞介素-8(IL-8), E.Coli表达的基因重组人体单核细胞来源的IL-8, 72个氨基酸 (human) (UniProt P10145); assay: ELISA, plate coated with 1ug/ml IL-8, antibody 3 ng/ml, mean
[3] = biological target: 白细胞介素-8(IL-8), E.Coli表达的基因重组人体单核细胞来源的IL-8, 72个氨基酸 (human) (UniProt P10145); assay: ELISA, plate coated with 1ug/ml IL-8, antibody 3 ng/ml, replicate 2
[4] = biological target: 白细胞介素-8(IL-8), E.Coli表达的基因重组人体单核细胞来源的IL-8, 72个氨基酸 (human) (UniProt P10145); assay: ELISA, plate coated with 1ug/ml IL-8, antibody 3 ng/ml, replicate 1
[5] = biological target: 白细胞介素-8(IL-8), E.Coli表达的基因重组人体单核细胞来源的IL-8, 72个氨基酸 (human) (UniProt P10145); assay: cell-based or functional assay
[6] = biological target: 白细胞介素-8(IL-8), E.Coli表达的基因重组人体单核细胞来源的IL-8, 72个氨基酸 (human) (UniProt P10145); assay: ELISA, plate coated with 1ug/ml IL-8, antibody 30 ng/ml, mean
[7] = biological target: 白细胞介素-8(IL-8), E.Coli表达的基因重组人体单核细胞来源的IL-8, 72个氨基酸 (human) (UniProt P10145); assay: ELISA, plate coated with 1ug/ml IL-8, antibody 30 ng/ml, replicate 2
[8] = biological target: 白细胞介素-8(IL-8), E.Coli表达的基因重组人体单核细胞来源的IL-8, 72个氨基酸 (human) (UniProt P10145); assay: ELISA, plate coated with 1ug/ml IL-8, antibody 15 ng/ml, replicate 1
GROα = GROα (UniProt P09341); assay: ELISA, cross-reaction with IL-8 homologues (Table 2)
Chain of UniProt P09341 (P09341 35-107 limits assumed): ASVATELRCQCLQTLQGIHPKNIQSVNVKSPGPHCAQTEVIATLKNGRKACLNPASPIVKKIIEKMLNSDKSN

ENA78 = biological target: T1, ENA78 (UniProt P42830); assay: as above
T1 sequence (looked up): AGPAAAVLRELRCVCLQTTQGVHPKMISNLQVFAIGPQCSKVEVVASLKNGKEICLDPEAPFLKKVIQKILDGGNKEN

NAP-2 = biological target: T2, NAP-2 (UniProt P02775); assay: as above
T2 sequence (looked up): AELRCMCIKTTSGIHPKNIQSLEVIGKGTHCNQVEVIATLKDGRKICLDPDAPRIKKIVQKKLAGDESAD

[9] = biological target: 白细胞介素-8(IL-8), E.Coli表达的基因重组人体单核细胞来源的IL-8, 72个氨基酸 (human) (UniProt P10145); assay: as above
GCP2 = GCP2 (UniProt P80162); assay: as above
Chain of UniProt P80162 (P80162 38-114 limits assumed): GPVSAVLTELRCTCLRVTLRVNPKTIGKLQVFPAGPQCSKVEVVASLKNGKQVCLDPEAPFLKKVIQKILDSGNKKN

PF-4 = biological target: T3, PF-4 (UniProt P02776); assay: as above
T3 sequence (looked up): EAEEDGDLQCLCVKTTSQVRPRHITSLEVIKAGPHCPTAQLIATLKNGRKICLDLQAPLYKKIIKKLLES

[10] = biological target: 白细胞介素-8(IL-8), E.Coli表达的基因重组人体单核细胞来源的IL-8, 72个氨基酸 (human) (UniProt P10145); assay: ELISA, plate coated with 1ug/ml IL-8, antibody 30 ng/ml, replicate 1
[11] = biological target: 白细胞介素-8(IL-8), E.Coli表达的基因重组人体单核细胞来源的IL-8, 72个氨基酸 (human) (UniProt P10145); assay: ELISA, plate coated with 1ug/ml IL-8, antibody 15 ng/ml, replicate 2
GM-CSF = GM-CSF (UniProt P04141); assay: ELISA, cross-reaction (Table 1)
Chain of UniProt P04141 (P04141 18-144 limits assumed): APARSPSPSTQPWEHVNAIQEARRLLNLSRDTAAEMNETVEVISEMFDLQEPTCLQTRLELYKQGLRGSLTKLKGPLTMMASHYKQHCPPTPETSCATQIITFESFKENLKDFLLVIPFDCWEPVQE

IL-1β = IL-1β (UniProt P01584); assay: ELISA, cross-reaction (Table 1)
Chain of UniProt P01584 (P01584 117-269 limits assumed): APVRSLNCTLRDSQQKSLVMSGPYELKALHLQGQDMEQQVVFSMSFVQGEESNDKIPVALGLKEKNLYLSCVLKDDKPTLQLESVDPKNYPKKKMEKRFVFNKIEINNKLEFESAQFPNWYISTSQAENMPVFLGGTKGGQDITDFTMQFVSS

TNF-α = TNF-α (UniProt P01375); assay: ELISA, cross-reaction (Table 1)
Chain of UniProt P01375 (P01375 77-233 limits assumed): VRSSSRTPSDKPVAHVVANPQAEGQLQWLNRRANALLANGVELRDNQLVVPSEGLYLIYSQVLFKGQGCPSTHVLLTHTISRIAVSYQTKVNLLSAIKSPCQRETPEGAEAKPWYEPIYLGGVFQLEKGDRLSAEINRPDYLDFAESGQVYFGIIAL

IL-7 = biological target: T4, IL-7 (UniProt P13232); assay: ELISA, cross-reaction (Table 1)
T4 sequence (looked up): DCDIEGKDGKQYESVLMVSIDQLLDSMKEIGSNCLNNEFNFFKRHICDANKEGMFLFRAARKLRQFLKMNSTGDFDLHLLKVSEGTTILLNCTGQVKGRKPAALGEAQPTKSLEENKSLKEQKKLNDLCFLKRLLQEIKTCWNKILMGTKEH

MCAF = MCAF (UniProt P13500); assay: ELISA, cross-reaction (Table 1)
Chain of UniProt P13500 (P13500 24-99 limits assumed): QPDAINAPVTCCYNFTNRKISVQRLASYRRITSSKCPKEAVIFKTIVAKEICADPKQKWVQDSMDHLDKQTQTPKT

MCP-3 = MCP-3 (UniProt P80098); assay: ELISA, cross-reaction (Table 1)
Chain of UniProt P80098 (P80098 24-99 limits assumed): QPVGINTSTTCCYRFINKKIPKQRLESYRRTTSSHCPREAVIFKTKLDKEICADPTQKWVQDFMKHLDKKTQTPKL

EGF = EGF (UniProt P01133); assay: ELISA, cross-reaction (Table 1)
Chain of UniProt P01133 (P01133 971-1023 limits assumed): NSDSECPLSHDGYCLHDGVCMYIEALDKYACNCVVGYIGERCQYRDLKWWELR

IL-16 = IL-16 (UniProt Q14005); assay: ELISA, cross-reaction (Table 1)
Chain of UniProt Q14005 (Q14005 1212-1332 limits assumed): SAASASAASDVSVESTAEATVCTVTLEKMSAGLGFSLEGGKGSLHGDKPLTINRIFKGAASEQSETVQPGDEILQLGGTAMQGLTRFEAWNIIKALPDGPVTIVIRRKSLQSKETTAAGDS

TGF-β = assay: ELISA, cross-reaction (Table 1)
[12] = biological target: 白细胞介素-8(IL-8), E.Coli表达的基因重组人体单核细胞来源的IL-8, 72个氨基酸 (human) (UniProt P10145); assay: ELISA, cross-reaction (Table 1)
BSA = BSA (UniProt P02769); assay: ELISA, cross-reaction (Table 1)
Chain of UniProt P02769 (P02769 25-607 limits assumed): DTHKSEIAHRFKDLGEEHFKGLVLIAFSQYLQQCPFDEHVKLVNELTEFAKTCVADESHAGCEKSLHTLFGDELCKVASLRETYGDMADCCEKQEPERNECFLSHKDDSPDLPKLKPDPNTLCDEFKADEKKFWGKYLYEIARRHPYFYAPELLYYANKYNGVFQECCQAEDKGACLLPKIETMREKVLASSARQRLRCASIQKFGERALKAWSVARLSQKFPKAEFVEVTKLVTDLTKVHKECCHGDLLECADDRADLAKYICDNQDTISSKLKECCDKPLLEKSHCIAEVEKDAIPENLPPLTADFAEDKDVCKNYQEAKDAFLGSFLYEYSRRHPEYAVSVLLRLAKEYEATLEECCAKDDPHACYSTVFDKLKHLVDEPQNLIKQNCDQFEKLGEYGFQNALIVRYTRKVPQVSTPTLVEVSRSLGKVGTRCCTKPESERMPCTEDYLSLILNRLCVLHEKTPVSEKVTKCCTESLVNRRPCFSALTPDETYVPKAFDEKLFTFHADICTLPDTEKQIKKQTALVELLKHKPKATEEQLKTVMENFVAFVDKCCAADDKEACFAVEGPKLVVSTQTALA

HSA = HSA (UniProt P02768); assay: ELISA, cross-reaction (Table 1)
Chain of UniProt P02768 (P02768 25-609): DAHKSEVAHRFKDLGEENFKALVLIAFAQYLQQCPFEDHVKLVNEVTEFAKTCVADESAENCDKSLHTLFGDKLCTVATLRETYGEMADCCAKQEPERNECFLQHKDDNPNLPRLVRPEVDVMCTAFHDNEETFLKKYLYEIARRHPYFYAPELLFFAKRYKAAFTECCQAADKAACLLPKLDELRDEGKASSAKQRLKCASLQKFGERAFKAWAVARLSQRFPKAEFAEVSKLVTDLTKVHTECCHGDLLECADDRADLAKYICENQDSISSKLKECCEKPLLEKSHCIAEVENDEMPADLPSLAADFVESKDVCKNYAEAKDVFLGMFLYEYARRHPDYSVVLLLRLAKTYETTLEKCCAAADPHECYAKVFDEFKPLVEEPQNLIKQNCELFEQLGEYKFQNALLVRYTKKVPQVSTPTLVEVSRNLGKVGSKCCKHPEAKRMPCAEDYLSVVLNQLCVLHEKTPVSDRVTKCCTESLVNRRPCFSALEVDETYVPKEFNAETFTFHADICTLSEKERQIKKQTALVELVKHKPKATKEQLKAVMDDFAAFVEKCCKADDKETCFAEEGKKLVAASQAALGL

b-FGF = b-FGF (UniProt P09038); assay: ELISA, cross-reaction (Table 1)
Chain of UniProt P09038 (P09038 143-288 limits assumed): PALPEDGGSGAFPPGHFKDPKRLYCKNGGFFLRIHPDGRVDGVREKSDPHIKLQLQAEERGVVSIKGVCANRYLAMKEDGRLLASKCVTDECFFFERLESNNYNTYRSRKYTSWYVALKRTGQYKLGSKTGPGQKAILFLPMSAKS

M-CSF = biological target: T5, M-CSF (UniProt P09603); assay: ELISA, cross-reaction (Table 1)
T5 sequence (looked up): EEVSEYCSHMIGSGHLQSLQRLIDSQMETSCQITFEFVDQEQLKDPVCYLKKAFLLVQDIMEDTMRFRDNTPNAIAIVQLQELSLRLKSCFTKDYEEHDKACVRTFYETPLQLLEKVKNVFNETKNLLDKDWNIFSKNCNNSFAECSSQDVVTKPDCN

Chain of UniProt P10145 (P10145 21-99): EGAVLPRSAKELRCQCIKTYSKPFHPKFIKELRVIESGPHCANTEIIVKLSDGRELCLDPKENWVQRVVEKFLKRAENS

OD 450 平均值 [1]: 0.667 OD450 | OD 450 平均值 [2]: 0.365 OD450 | OD 450 [3]: 0.377 OD450 | OD 450 [4]: 0.352 OD450 | 化学趋向抑制率 (antibody 0.05μg/mL, IL-8 10ng/ml, Ab∶Ag 5∶1) [5]: 17.1% | 化学趋向抑制率 (antibody 0.5μg/mL, IL-8 10ng/ml, Ab∶Ag 50∶1) [5]: 83.9% | 化学趋向抑制率 (antibody 5μg/mL, IL-8 10ng/ml, Ab∶Ag 500∶1) [5]: 99.8% | 化学趋向抑制率 (antibody 50μg/mL, IL-8 10ng/ml, Ab∶Ag 5000∶1) [5]: 118% | 抑制率(%) (IL-8 20 ng/ml, antibody 0.1 ug/ml) [5]: 48.9% | 抑制率(%) (IL-8 20 ng/ml, antibody 1 ug/ml) [5]: 81.1% | 抑制率(%) (IL-8 20 ng/ml, antibody 10 ug/ml) [5]: 91.1% | 趋化指数 (IL-8 20 ng/ml, antibody 0.1 ug/ml) [5]: 2.24 | 趋化指数 (IL-8 20 ng/ml, antibody 1 ug/ml) [5]: 1.46 | 趋化指数 (IL-8 20 ng/ml, antibody 10 ug/ml) [5]: 1.22 | OD 450 平均值 [6]: 1.18 OD450 | OD 450 [7]: 1.27 OD450 | OD 450 [8]: 0.626 OD450 | O.D.值 (GROα): 0.097 OD | O.D.值 (ENA78): 0.073 OD | O.D.值 (NAP-2): 0.031 OD | O.D.值 [9]: > 2 OD | O.D.值 (GCP2): 0.088 OD | O.D.值 (PF-4): 0.113 OD | OD 450 [10]: 1.09 OD450 | OD 450 [11]: 0.708 OD450 | O.D.值 (GM-CSF): 0.037 OD | O.D.值 (IL-1β): 0.029 OD | O.D.值 (TNF-α): 0.039 OD | O.D.值 (IL-7): 0.06 OD | O.D.值 (MCAF): 0.023 OD | O.D.值 (MCP-3): 0.024 OD | O.D.值 (EGF): 0.044 OD | O.D.值 (IL-16): 0.044 OD | O.D.值 (TGF-β): 0.021 OD | O.D.值 [12]: > 2 OD | O.D.值 (BSA): 0.147 OD | O.D.值 (HSA): 0.129 OD | O.D.值 (b-FGF): 0.027 OD | O.D.值 (M-CSF): 0.044 OD
B1: 抗IL-8单克隆抗体 克隆6E6(又称I8-60) (antibody, part only; not given: light variable and mouse constant regions, IgG1, V domains shown, part only)
VH: QVKLQQSGGGLVQPGGSLKFSCAASGFDFSRYWMSWVRQAPGKGLEWIGEINPDSTTINYTPSLKDKFIISRDNAKNTLYLQMSKVRSEDTALYYCARLDGYYGYFDYWGQGTTVTVSS

OD 450 平均值 [1]: 1.12 OD450 | OD 450 平均值 [2]: 0.402 OD450 | OD 450 [3]: 0.398 OD450 | OD 450 [4]: 0.406 OD450 | 抑制率(%) (IL-8 20 ng/ml, antibody 0.1 ug/ml) [5]: 48.2% | 抑制率(%) (IL-8 20 ng/ml, antibody 1 ug/ml) [5]: 80.2% | 抑制率(%) (IL-8 20 ng/ml, antibody 10 ug/ml) [5]: 75.1% | 趋化指数 (IL-8 20 ng/ml, antibody 0.1 ug/ml) [5]: 2.25 | 趋化指数 (IL-8 20 ng/ml, antibody 1 ug/ml) [5]: 1.48 | 趋化指数 (IL-8 20 ng/ml, antibody 10 ug/ml) [5]: 1.6 | OD 450 平均值 [6]: 1.95 OD450 | OD 450 [7]: 2 OD450 | OD 450 [8]: 1.09 OD450 | OD 450 [10]: 1.9 OD450 | OD 450 [11]: 1.14 OD450
B2: 抗IL-8嵌合型抗体 (Chimeric anti-IL8 Ab) (antibody, part only; not given: light variable and human constant regions, not shown: a dimerising Fc or GST)
heavy: QVKLQQSGGGLVQPGGSLKFSCAASGFDFSRYWMSWVRQAPGKGLEWIGEINPDSTTINYTPSLKDKFIISRDNAKNTLYLQMSKVRSEDTALYYCARLDGYYGYFDYWGQGTTVTVSS
